Experimental data from PMC10540216, “Activity Guided Azide-methyllysine Photo-trapping for Substrate Profiling of Lysine Demethylases” (Journal of the American Chemical Society, 2023).

B1: RRP44_HUMAN (protein, UniProt Q9Y2L1 1-958, looked up)
Exosome complex exonuclease …: MLKSKTFLKKTRAGGVMKIVREHYLRDDIGCGAPGCAACGGAHEGPALEPQPQDPASSVCPQPHYLLPDTNVLLHQIDVLEDPAIRNVIVLQTVLQEVRNRSAPVYKRIRDVTNNQEKHFYTFTNEHHRETYVEQEQGENANDRNDRAIRVAAKWYNEHLKKMSADNQLQVIFITNDRRNKEKAIEEGIPAFTCEEYVKSLTANPELIDRLACLSEEGNEIESGKIIFSEHLPLSKLQQGIKSGTYLQGTFRASRENYLEATVWIHGDNEENKEIILQGLKHLNRAVHEDIVAVELLPKSQWVAPSSVVLHDEGQNEEDVEKEEETERMLKTAVSEKMLKPTGRVVGIIKRNWRPYCGMLSKSDIKESRRHLFTPADKRIPRIRIETRQASTLEGRRIIVAIDGWPRNSRYPNGHFVRNLGDVGEKETETEVLLLEHDVPHQPFSQAVLSFLPKMPWSITEKDMKNREDLRHLCICSVDPPGCTDIDDALHCRELENGNLEVGVHIADVSHFIRPGNALDQESARRGTTVYLCEKRIDMVPELLSSNLCSLKCDVDRLAFSCIWEMNHNAEILKTKFTKSVINSKASLTYAEAQLRIDSANMNDDITTSLRGLNKLAKILKKRRIEKGALTLSSPEVRFHMDSETHDPIDLQTKELRETNSMVEEFMLLANISVAKKIHEEFSEHALLRKHPAPPPSNYEILVKAARSRNLEIKTDTAKSLAESLDQAESPTFPYLNTLLRILATRCMMQAVYFCSGMDNDFHHYGLASPIYTHFTSPIRRYADVIVHRLLAVAIGADCTYPELTDKHKLADICKNLNFRHKMAQYAQRASVAFHTQLFFKSKGIVSEEAYILFVRKNAIVVLIPKYGLEGTVFFEEKDKPNPQLIYDDEIPSLKIEDTVFHVFDKVKVKIMLDSSNLQHQKIRMSLVEPQIPGISIPTDTSNMDLNGPKKKKMKLGK
B2: TR150_HUMAN (protein, UniProt Q9Y2W1 2-955, looked up)
Thyroid hormone …: SKTNKSKSGSRSSRSRSASRSRSRSFSKSRSRSRSLSRSRKRRLSSRSRSRSYSPAHNRERNHPRVYQNRDFRGHNRGYRRPYYFRGRNRGFYPWGQYNRGGYGNYRSNWQNYRQAYSPRRGRSRSRSPKRRSPSPRSRSHSRNSDKSSSDRSRRSSSSRSSSNHSRVESSKRKSAKEKKSSSKDSRPSQAAGDNQGDEAKEQTFSGGTSQDTKASESSKPWPDATYGTGSASRASAVSELSPRERSPALKSPLQSVVVRRRSPRPSPVPKPSPPLSSTSQMGSTLPSGAGYQSGTHQGQFDHGSGSLSPSKKSPVGKSPPSTGSTYGSSQKEESAASGGAAYTKRYLEEQKTENGKDKEQKQTNTDKEKIKEKGSFSDTGLGDGKMKSDSFAPKTDSEKPFRGSQSPKRYKLRDDFEKKMADFHKEEMDDQDKDKAKGRKESEFDDEPKFMSKVIGANKNQEEEKSGKWEGLVYAPPGKEKQRKTEELEEESFPERSKKEDRGKRSEGGHRGFVPEKNFRVTAYKAVQEKSSSPPPRKTSESRDKLGAKGDFPTGKSSFSITREAQVNVRMDSFDEDLARPSGLLAQERKLCRDLVHSNKKEQEFRSIFQHIQSAQSQRSPSELFAQHIVTIVHHVKEHHFGSSGMTLHERFTKYLKRGTEQEAAKNKKSPEIHRRIDISPSTFRKHGLAHDEMKSPREPGYKAEGKYKDDPVDLRLDIERRKKHKERDLKRGKSRESVDSRDSSHSRERSAEKTEKTHKGSKKQKKHRRARDRSRSSSSSSQSSHSYKAEEYTEETEEREESTTGFDKSRLGTKDFVGPSERGGGRARGTFQFRARGRGWGRGNYSGNNNNNSNNDFQKRNREEEWDPEYTPKSKKYYLHDDREGEGSDKWVSRGRGRGAFPRGRGRFMFRKSSTSPKWAHDKFSGEEGEIEDDESGTENREEKDNIQPTTE
B3: IPO5_HUMAN (protein, UniProt O00410 2-1097, looked up)
Importin-5: AAAAAEQQQFYLLLGNLLSPDNVVRKQAEETYENIPGQSKITFLLQAIRNTTAAEEARQMAAVLLRRLLSSAFDEVYPALPSDVQTAIKSELLMIIQMETQSSMRKKVCDIAAELARNLIDEDGNNQWPEGLKFLFDSVSSQNVGLREAALHIFWNFPGIFGNQQQHYLDVIKRMLVQCMQDQEHPSIRTLSARATAAFILANEHNVALFKHFADLLPGFLQAVNDSCYQNDDSVLKSLVEIADTVPKYLRPHLEATLQLSLKLCGDTSLNNMQRQLALEVIVTLSETAAAMLRKHTNIVAQTIPQMLAMMVDLEEDEDWANADELEDDDFDSNAVAGESALDRMACGLGGKLVLPMIKEHIMQMLQNPDWKYRHAGLMALSAIGEGCHQQMEGILNEIVNFVLLFLQDPHPRVRYAACNAVGQMATDFAPGFQKKFHEKVIAALLQTMEDQGNQRVQAHAAAALINFTEDCPKSLLIPYLDNLVKHLHSIMVLKLQELIQKGTKLVLEQVVTSIASVADTAEEKFVPYYDLFMPSLKHIVENAVQKELRLLRGKTIECISLIGLAVGKEKFMQDASDVMQLLLKTQTDFNDMEDDDPQISYMISAWARMCKILGKEFQQYLPVVMGPLMKTASIKPEVALLDTQDMENMSDDDGWEFVNLGDQQSFGIKTAGLEEKSTACQMLVCYAKELKEGFVEYTEQVVKLMVPLLKFYFHDGVRVAAAESMPLLLECARVRGPEYLTQMWHFMCDALIKAIGTEPDSDVLSEIMHSFAKCIEVMGDGCLNNEHFEELGGILKAKLEEHFKNQELRQVKRQDEDYDEQVEESLQDEDDNDVYILTKVSDILHSIFSSYKEKVLPWFEQLLPLIVNLICPHRPWPDRQWGLCIFDDVIEHCSPASFKYAEYFLRPMLQYVCDNSPEVRQAAAYGLGVMAQYGGDNYRPFCTEALPLLVRVIQSADSKTKENVNATENCISAVGKIMKFKPDCVNVEEVLPHWLSWLPLHEDKEEAVQTFNYLCDLIESNHPIVLGPNNTNLPKIFSIIAEGEMHEAIKHEDPCAKRLANVVRQVQTSGGLWTECIAQLSPEQQAAIQELLNSA
B4: SF3B1_HUMAN (protein, UniProt O75533 1-1304, looked up)
Splicing factor 3B subunit 1: MAKIAKTHEDIEAQIREIQGKKAALDEAQGVGLDSTGYYDQEIYGGSDSRFAGYVTSIAATELEDDDDDYSSSTSLLGQKKPGYHAPVALLNDIPQSTEQYDPFAEHRPPKIADREDEYKKHRRTMIISPERLDPFADGGKTPDPKMNARTYMDVMREQHLTKEEREIRQQLAEKAKAGELKVVNGAAASQPPSKRKRRWDQTADQTPGATPKKLSSWDQAETPGHTPSLRWDETPGRAKGSETPGATPGSKIWDPTPSHTPAGAATPGRGDTPGHATPGHGGATSSARKNRWDETPKTERDTPGHGSGWAETPRTDRGGDSIGETPTPGASKRKSRWDETPASQMGGSTPVLTPGKTPIGTPAMNMATPTPGHIMSMTPEQLQAWRWEREIDERNRPLSDEELDAMFPEGYKVLPPPAGYVPIRTPARKLTATPTPLGGMTGFHMQTEDRTMKSVNDQPSGNLPFLKPDDIQYFDKLLVDVDESTLSPEEQKERKIMKLLLKIKNGTPPMRKAALRQITDKAREFGAGPLFNQILPLLMSPTLEDQERHLLVKVIDRILYKLDDLVRPYVHKILVVIEPLLIDEDYYARVEGREIISNLAKAAGLATMISTMRPDIDNMDEYVRNTTARAFAVVASALGIPSLLPFLKAVCKSKKSWQARHTGIKIVQQIAILMGCAILPHLRSLVEIIEHGLVDEQQKVRTISALAIAALAEAATPYGIESFDSVLKPLWKGIRQHRGKGLAAFLKAIGYLIPLMDAEYANYYTREVMLILIREFQSPDEEMKKIVLKVVKQCCGTDGVEANYIKTEILPPFFKHFWQHRMALDRRNYRQLVDTTVELANKVGAAEIISRIVDDLKDEAEQYRKMVMETIEKIMGNLGAADIDHKLEEQLIDGILYAFQEQTTEDSVMLNGFGTVVNALGKRVKPYLPQICGTVLWRLNNKSAKVRQQAADLISRTAVVMKTCQEEKLMGHLGVVLYEYLGEEYPEVLGSILGALKAIVNVIGMHKMTPPIKDLLPRLTPILKNRHEKVQENCIDLVGRIADRGAEYVSAREWMRICFELLELLKAHKKAIRRATVNTFGYIAKAIGPHDVLATLLNNLKVQERQNRVCTTVAIAIVAETCSPFTVLPALMNEYRVPELNVQNGVLKSLSFLFEYIGEMGKDYIYAVTPLLEDALMDRDLVHRQTASAVVQHMSLGVYGFGCEDSLNHLLNYVWPNVFETSPHVIQAVMGALEGLRVAIGPCRMLQYCLQGLFHPARKVRDVYWKIYNSIYIGSQDALIAHYPRIYNDDKNTYIRYELDYIL
B5: SF3B3_HUMAN (protein, UniProt Q15393 1-1217, looked up)
Splicing factor 3B subunit 3: MFLYNLTLQRATGISFAIHGNFSGTKQQEIVVSRGKILELLRPDPNTGKVHTLLTVEVFGVIRSLMAFRLTGGTKDYIVVGSDSGRIVILEYQPSKNMFEKIHQETFGKSGCRRIVPGQFLAVDPKGRAVMISAIEKQKLVYILNRDAAARLTISSPLEAHKANTLVYHVVGVDVGFENPMFACLEMDYEEADNDPTGEAAANTQQTLTFYELDLGLNHVVRKYSEPLEEHGNFLITVPGGSDGPSGVLICSENYITYKNFGDQPDIRCPIPRRRNDLDDPERGMIFVCSATHKTKSMFFFLAQTEQGDIFKITLETDEDMVTEIRLKYFDTVPVAAAMCVLKTGFLFVASEFGNHYLYQIAHLGDDDEEPEFSSAMPLEEGDTFFFQPRPLKNLVLVDELDSLSPILFCQIADLANEDTPQLYVACGRGPRSSLRVLRHGLEVSEMAVSELPGNPNAVWTVRRHIEDEFDAYIIVSFVNATLVLSIGETVEEVTDSGFLGTTPTLSCSLLGDDALVQVYPDGIRHIRADKRVNEWKTPGKKTIVKCAVNQRQVVIALTGGELVYFEMDPSGQLNEYTERKEMSADVVCMSLANVPPGEQRSRFLAVGLVDNTVRIISLDPSDCLQPLSMQALPAQPESLCIVEMGGTEKQDELGERGSIGFLYLNIGLQNGVLLRTVLDPVTGDLSDTRTRYLGSRPVKLFRVRMQGQEAVLAMSSRSWLSYSYQSRFHLTPLSYETLEFASGFASEQCPEGIVAISTNTLRILALEKLGAVFNQVAFPLQYTPRKFVIHPESNNLIIIETDHNAYTEATKAQRKQQMAEEMVEAAGEDERELAAEMAAAFLNENLPESIFGAPKAGNGQWASVIRVMNPIQGNTLDLVQLEQNEAAFSVAVCRFSNTGEDWYVLVGVAKDLILNPRSVAGGFVYTYKLVNNGEKLEFLHKTPVEEVPAAIAPFQGRVLIGVGKLLRVYDLGKKKLLRKCENKHIANYISGIQTIGHRVIVSDVQESFIWVRYKRNENQLIIFADDTYPRWVTTASLLDYDTVAGADKFGNICVVRLPPNTNDEVDEDPTGNKALWDRGLLNGASQKAEVIMNYHVGETVLSLQKTTLIPGGSESLVYTTLSGGIGILVPFTSHEDHDFFQHVEMHLRSEHPPLCGRDHLSFRSYYFPVKNVIDGDLCEQFNSMEPNKQKNVSEELDRTPPEVSKKLEDIRTRYAF

tested on: KDM4A-I71AzF; assay: CASI: photo-crosslinking with HEK293T cell extracts, StrepTactin enrichment and LC-MS/MS proteomics; assay type: binding, human; settings: sheet "Final results but with 0.01";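 note: lysates from HEK293T cells pretreated with a KDM4 inhibitor to raise proteome methylation, affinity-purified after ±UV, gel-resolved, trypsin-digested, with exclusive unique peptides per protein averaged per condition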

Point of comparison: B3, “Fold change (+UV/-UV)” value 1. Against it:
- B1 — lower, 0.6
- B2 — higher, 1.333
- B4 — higher, 2
- B5 — lower, 0.7381
